Reference: the Immune Epitope Database (IEDB)
One block for each sequence: values may come before it.

Tests used:
Test in all cases: IEDB peptide-MHC binding, purified MHC/competitive/radioactivity; filed as Kd, often an IC50 or EC50 that approximates it; ≥ and ≤ were set here for values at or beyond the usual limits of such assays
[1] = biological target: HLA-A*02:06
[2] = biological target: HLA-A*02:02
[3] = biological target: HLA-A*02:03
[4] = biological target: HLA-A*33:01
[5] = biological target: HLA-A*31:01
[6] = biological target: HLA-A*03:01
[7] = biological target: HLA-A*11:01
[8] = biological target: HLA-A*68:01
[9] = source organism: Dengue virus 3 Martinique/1243/1999
[10] = source organism: SARS coronavirus Tor2
[11] = source organism: Lymphocytic choriomeningitis virus (strain Armstrong)
[12] = source organism: Dengue virus 4 Dominica/814669/1981
[13] = source organism: Vaccinia virus WR
[14] = source organism: Dengue virus 1 Brazil/97-11/1997
[15] = source organism: Mammarenavirus whitewaterense
[16] = source organism: Vaccinia virus Copenhagen

Sequence: AIVLEFFMMV
- Kd [1, 9]: 7.87 nM

Sequence: ALDGVLSTFV
- Kd [2, 10]: 3.26 nM
- Kd [1, 10]: 140 nM
- Kd [3, 10]: 27.9 nM

Sequence: ALMDCIIFES
- Kd [2, 11]: 2.13 nM
- Kd [1, 11]: 12.8 nM
- Kd [3, 11]: 16.4 nM

Sequence: ALVLLILMTA
- Kd [2, 10]: 67.2 nM
- Kd [1, 10]: 61.4 nM
- Kd [3, 10]: 50.7 nM

Sequence: AMHSALAGA
- Kd [3, 12]: 8.58 nM

Sequence: CTINVNSLAL
- Kd [2, 13]: 494 nM
- Kd [1, 13]: 216 nM
- Kd [3, 13]: 1040 nM

Sequence: CTMERTNDL
- Kd [2, 13]: 36.2 nM
- Kd [1, 13]: 95.7 nM
- Kd [3, 13]: 25.5 nM

Sequence: CVDIFTEGKI
- Kd [2, 13]: ≥ 70000 nM
- Kd [1, 13]: ≥ 20900 nM
- Kd [3, 13]: 17500 nM

Sequence: DIISSKQYPA
- Kd [2, 13]: 552 nM
- Kd [1, 13]: 3100 nM
- Kd [3, 13]: 2430 nM

Sequence: DIPTFNSLNT
- Kd [2, 13]: 2020 nM
- Kd [1, 13]: 45.3 nM
- Kd [3, 13]: 16600 nM

- Kd ([1]; source organism: Homo sapiens): ≥ 97400 nM
Sequence: DLEALKKETI

Sequence: DTMRIYCSL
- Kd [2, 13]: 5840 nM
- Kd [1, 13]: 2920 nM
- Kd [3, 13]: 5460 nM

Sequence: EAAAATCALV
- Kd [2, 13]: 1810 nM
- Kd [1, 13]: 60.1 nM
- Kd [3, 13]: 248 nM

Sequence: EIMDKEQLL
- Kd [2, 13]: 183 nM
- Kd [1, 13]: ≥ 26500 nM
- Kd [3, 13]: 427 nM

- Kd ([3]; source organism: Homo sapiens): 19000 nM
Sequence: ELAAHQKKIL

Sequence: ELIDVLKTRL
- Kd [2, 13]: 262 nM
- Kd [1, 13]: 1990 nM
- Kd [3, 13]: 118 nM

Sequence: ELTTVFIKYV
- Kd [2, 13]: 2790 nM
- Kd [1, 13]: 463 nM
- Kd [3, 13]: 719 nM

Sequence: ETIQKDINIT
- Kd [2, 13]: 354 nM
- Kd [1, 13]: 112 nM
- Kd [3, 13]: 10.1 nM

Sequence: FAISYCRAFI
- Kd [2, 13]: 105 nM
- Kd [1, 13]: 34.5 nM
- Kd [3, 13]: 38.3 nM

Sequence: FKMRPMFAV
- Kd [1, 14]: 55.5 nM

Sequence: FLDWIKDIM
- Kd [2, 13]: 0.78 nM
- Kd [1, 13]: 162 nM
- Kd [3, 13]: 297 nM

Sequence: FMTATPPGTA
- Kd [3, 9]: 2.17 nM

Sequence: FQRALIFIL
- Kd ([1]; source organism: Dengue virus 2 Jamaica/1409/1983): 16.9 nM

Sequence: FVATFRDML
- Kd [2, 13]: 2350 nM
- Kd [1, 13]: 487 nM
- Kd [3, 13]: 206 nM

Sequence: GIIITVGMLI
- Kd [2, 13]: 3580 nM
- Kd [1, 13]: 1130 nM
- Kd [3, 13]: 595 nM

Sequence: GINNVQSLI
- Kd [2, 13]: 474 nM
- Kd [1, 13]: 1730 nM
- Kd [3, 13]: 378 nM

Sequence: GLIAIVMVTI
- Kd [2, 10]: 7.63 nM
- Kd [1, 10]: 137 nM
- Kd [3, 10]: 18.9 nM

Sequence: ILNAHKDGV
- Kd [3, 12]: 329 nM

Sequence: KLRDSYTQV
- Kd ([3]; source organism: Dengue virus 1 Nauru/West Pac/1974): 16 nM

Sequence: KVDNFTMGV
- Kd [1, 9]: 4.24 nM

Sequence: LMLVTPSMTM
- Kd [1, 9]: 974 nM

Sequence: LVYFSTQQNK
- Kd [4, 13]: ≥ 44600 nM
- Kd [5, 13]: 5230 nM
- Kd [6, 13]: 0.977 nM
- Kd [7, 13]: 1.56 nM
- Kd [8, 13]: 4.03 nM

Sequence: MLEGETKLYK
- Kd [4, 13]: ≥ 70000 nM
- Kd [5, 13]: ≥ 50400 nM
- Kd [6, 13]: 20.6 nM
- Kd [7, 13]: 63.4 nM
- Kd [8, 13]: 9180 nM

Sequence: MLTNAISSR
- Kd [4, 13]: 237 nM
- Kd [5, 13]: 9.57 nM
- Kd [6, 13]: 13.1 nM
- Kd [7, 13]: 4110 nM
- Kd [8, 13]: 13.4 nM

Sequence: MLYQLLEAVY
- Kd [4, 13]: 15700 nM
- Kd [5, 13]: 10800 nM
- Kd [6, 13]: 1460 nM
- Kd [7, 13]: 13700 nM
- Kd [8, 13]: 3350 nM

Sequence: MQKESDDYIK
- Kd [4, 10]: ≥ 70000 nM
- Kd [5, 10]: 5790 nM
- Kd [6, 10]: 13200 nM
- Kd [7, 10]: 364 nM
- Kd [8, 10]: 1550 nM

Sequence: NARGEDTQMR
- Kd [4, 13]: 2120 nM
- Kd [5, 13]: 1770 nM
- Kd [6, 13]: ≥ 41400 nM
- Kd [7, 13]: ≥ 69000 nM
- Kd [8, 13]: 16.2 nM

Sequence: NIAEYIAGLK
- Kd [4, 13]: ≥ 25200 nM
- Kd [5, 13]: ≥ 70000 nM
- Kd [6, 13]: 132 nM
- Kd [7, 13]: 518 nM
- Kd [8, 13]: 14.5 nM

Sequence: NLKYSVIVTV
- Kd [3, 14]: 5.6 nM

Sequence: NQATTKTTFK
- Kd [4, 10]: ≥ 26500 nM
- Kd [5, 10]: 4270 nM
- Kd [6, 10]: 378 nM
- Kd [7, 10]: 440 nM
- Kd [8, 10]: 506 nM

Sequence: PCMINDTHFL
- Kd [4, 15]: ≥ 48500 nM
- Kd [5, 15]: 11600 nM
- Kd [6, 15]: ≥ 70000 nM
- Kd [7, 15]: ≥ 46800 nM
- Kd [8, 15]: ≥ 40100 nM

Sequence: PSIFLIITK
- Kd [4, 13]: 10900 nM
- Kd [5, 13]: 9350 nM
- Kd [6, 13]: 166 nM
- Kd [7, 13]: 36 nM
- Kd [8, 13]: 4130 nM

Sequence: PVLKAMHDKK
- Kd [4, 13]: ≥ 70000 nM
- Kd [5, 13]: ≥ 70000 nM
- Kd [6, 13]: 8510 nM
- Kd [7, 13]: ≥ 24800 nM
- Kd [8, 13]: ≥ 70200 nM

Sequence: PVYISQFSY
- Kd [4, 13]: 16200 nM
- Kd [5, 13]: ≥ 25900 nM
- Kd [6, 13]: 16300 nM
- Kd [7, 13]: 1750 nM
- Kd [8, 13]: ≥ 22400 nM

Sequence: PVYISQFSYK
- Kd [4, 16]: 54 nM
- Kd [5, 16]: 13.3 nM
- Kd [6, 16]: 1.26 nM
- Kd [7, 16]: 19.2 nM
- Kd [8, 16]: 95.2 nM

Sequence: QIFNEDTSY
- Kd [4, 13]: ≥ 77700 nM
- Kd [5, 13]: ≥ 77900 nM
- Kd [6, 13]: 3610 nM
- Kd [7, 13]: 73.2 nM
- Kd [8, 13]: 6330 nM

Sequence: QSYKETVHK
- Kd [4, 13]: ≥ 77700 nM
- Kd [5, 13]: 5550 nM
- Kd [6, 13]: 21.7 nM
- Kd [7, 13]: 43.4 nM
- Kd [8, 13]: 37.6 nM

Sequence: QTSVNTVVR
- Kd [4, 13]: 7260 nM
- Kd [5, 13]: 4010 nM
- Kd [6, 13]: ≥ 63600 nM
- Kd [7, 13]: 923 nM
- Kd [8, 13]: 73.3 nM

Sequence: RNPYENILYK
- Kd [4, 11]: ≥ 37800 nM
- Kd [5, 11]: 16400 nM
- Kd [6, 11]: 7040 nM
- Kd [7, 11]: 3480 nM
- Kd [8, 11]: 5510 nM
